Measured values published in the Human Domainome abundance scans (Beltran et al. 2025).
± gives the uncertainty stated by the source.

B1: Myocardin, residues 363 to 406; numbered along this chain, Q8IZQ8 (parent)
chain: KPGPLPPNLDDLKVSELRQQLRIRGLPVSGTKTALMDRLRPFQD

Variants of: B1
Assay: abundance fitness (aPCA) (normalised: wild type 0, dead -1); higher = more abundant; growth selection in yeast, the domain comes from the species named
Conditions: Homo sapiens

KPGPLPPNLDDLKVSELRQQLRIRGLPVSGTKTALMDRLRPFQE [D44E] and KPGPLPPNLDDLKVSELRQQLRIRGLPVSGTKTALMDRLRPFQC [D44C] are within error of each other in abundance fitness: -0.031 ± 0.19 for the first, -0.297 ± 0.21 for the second.

KPGPLPPNLDDLKVSELRQQLRIRGLPVSGTKTALMDRLRPFQA [D44A] and KPGPLPPNLDDLKVSELRQQLRIRGLPVSGTKTALMDRLRIFQD [P41I] are within error of each other in abundance fitness: -0.086 ± 0.13 for the first, -0.001 ± 0.21 for the second.

Compared with KPGPLPPNLDDLKVSELRQQLRIRGLPVSGTKTALMDRLRCFQD [P41C], KPGPLPPNLDDLKVSELRQQLRIRGLPVSGTKTALMDRLRAFQD [P41A] is higher in abundance fitness: -0.151 ± 0.085 for the first, 0.037 ± 0.077 for the second.

KPGPLPPNLDDLKVSELRQQLRIRGLPVSGTKTALMDRLRVFQD [P41V] and KPGPLPPNLDDLKVSELRQQLRIRGLPVSGTKTALMDRLRLFQD [P41L] are within error of each other in abundance fitness: -0.11 ± 0.087 for the first, -0.132 ± 0.082 for the second.

KPGPLPPNLDDLKVSELRQQLRIRGLPVSGTKTALMDRLRKFQD [P41K] and KPGPLPPNLDDLKVSELRQQLRIRGLPVSGTKTALMDRLRYFQD [P41Y] are within error of each other in abundance fitness: -0.305 ± 0.077 for the first, -0.455 ± 0.13 for the second.

KPGPLPPNLDDLKVSELRQQLRIRGLPVSGTKTALMDRLRMFQD [P41M] and KPGPLPPNLDDLKVSELRQQLRIRGLPVSGTKTALMDRLRGFQD [P41G] are within error of each other in abundance fitness: -0.231 ± 0.3 for the first, -0.084 ± 0.055 for the second.

KPGPLPPNLDDLKVSELRQQLRIRGLPVSGTKTALMDRLRWFQD [P41W] and KPGPLPPNLDDLKVSELRQQLRIRGLPVSGTKTALMDRLRHFQD [P41H] are within error of each other in abundance fitness: -0.161 ± 0.09 for the first, -0.14 ± 0.11 for the second.

KPGPLPPNLDDLKVSELRQQLRIRGLPVSGTKTALMDRLRSFQD [P41S] and KPGPLPPNLDDLKVSELRQQLRIRGLPVSGTKTALMDRLREFQD [P41E] are within error of each other in abundance fitness: 0.064 ± 0.11 for the first, 0.087 ± 0.088 for the second.

KPGPLPPNLDDLKVSELRQQLRIRGLPVSGTKTALMDRLRFFQD [P41F] and KPGPLPPNLDDLKVSELRQQLRIRGLPVSGTKTALMDRLRRFQD [P41R] are within error of each other in abundance fitness: -0.27 ± 0.12 for the first, -0.256 ± 0.058 for the second.

KPGPLPPNLDDLKVSELRQQLRIRGLPVSGTKTALMDRLRDFQD [P41D] and KPGPLPPNLDDLKVSELRQQLRIRGLPVSGTKTALMDRLRTFQD [P41T] are within error of each other in abundance fitness: -0.325 ± 0.27 for the first, -0.351 ± 0.12 for the second.

Going from KPGPLPPNLDDLKVSELRQQLRIRGLPVSGTKTALMDRLRPFRD [Q43R] to KPGPLPPNLDDLKVSELRQQLRIRGLPVSGTKTALMDRLRPFSD [Q43S], the abundance fitness rises from -0.232 ± 0.059 to -0.061 ± 0.083.

Compared with KPGPLPPNLDDLKVSELRQQLRIRGLPVSGTKTALMDRLRPFTD [Q43T], KPGPLPPNLDDLKVSELRQQLRIRGLPVSGTKTALMDRLRPFKD [Q43K] is lower in abundance fitness: 0.1 ± 0.094 for the first, -0.503 ± 0.29 for the second.

KPGPLPPNLDDLKVSELRQQLRIRGLPVSGTKTALMDRLRPFAD [Q43A] and KPGPLPPNLDDLKVSELRQQLRIRGLPVSGTKTALMDRLRPFMD [Q43M] are within error of each other in abundance fitness: -0.042 ± 0.1 for the first, -0.031 ± 0.07 for the second.

Going from KPGPLPPNLDDLKVSELRQQLRIRGLPVSGTKTALMDRLRPFPD [Q43P] to KPGPLPPNLDDLKVSELRQQLRIRGLPVSGTKTALMDRLRPFID [Q43I], the abundance fitness rises from -0.625 ± 0.1 to -0.109 ± 0.14.

First: KPGPLPPNLDDLKVSELRQQLRIRGLPVSGTKTALMDRLRPFHD [Q43H]
Second: KPGPLPPNLDDLKVSELRQQLRIRGLPVSGTKTALMDRLRPFWD [Q43W]
The abundance fitness of the first is lower: -0.376 ± 0.17 for the first, -0.106 ± 0.074 for the second.

KPGPLPPNLDDLKVSELRQQLRIRGLPVSGTKTALMDRLRPFGD [Q43G] and KPGPLPPNLDDLKVSELRQQLRIRGLPVSGTKTALMDRLRPFFD [Q43F] are within error of each other in abundance fitness: -0.152 ± 0.064 for the first, 0.028 ± 0.21 for the second.

KPGPLPPNLDDLKVSELRQQLRIRGLPVSGTKTALMDRLRPFCD [Q43C] and KPGPLPPNLDDLKVSELRQQLRIRGLPVSGTKTALMDRLRPFND [Q43N] are within error of each other in abundance fitness: -0.005 ± 0.13 for the first, -0.213 ± 0.18 for the second.

First: KPGPLPPNLDDLKVSELRQQLRIRGLPVSGTKTALMQRLRPFQD [D37Q]
Second: KPGPLPPNLDDLKVSELRQQLRIRGLPVSGTKTALMGRLRPFQD [D37G]
The abundance fitness of the first is higher: -0.165 ± 0.098 for the first, -0.404 ± 0.059 for the second.

KPGPLPPNLDDLKVSELRQQLRIRGLPVSGTKTALMYRLRPFQD [D37Y] and KPGPLPPNLDDLKVSELRQQLRIRGLPVSGTKTALMKRLRPFQD [D37K] are within error of each other in abundance fitness: -0.271 ± 0.22 for the first, -0.245 ± 0.11 for the second.

KPGPLPPNLDDLKVSELRQQLRIRGLPVSGTKTALMWRLRPFQD [D37W] and KPGPLPPNLDDLKVSELRQQLRIRGLPVSGTKTALMIRLRPFQD [D37I] are within error of each other in abundance fitness: -0.829 ± 0.1 for the first, -0.594 ± 0.16 for the second.

Compared with KPGPLPPNLDDLKVSELRQQLRIRGLPVSGTKTALMLRLRPFQD [D37L], KPGPLPPNLDDLKVSELRQQLRIRGLPVSGTKTALMNRLRPFQD [D37N] is higher in abundance fitness: -0.51 ± 0.079 for the first, 0.227 ± 0.14 for the second.

Compared with KPGPLPPNLDDLKVSELRQQLRIRGLPVSGTKTALMHRLRPFQD [D37H], KPGPLPPNLDDLKVSELRQQLRIRGLPVSGTKTALMPRLRPFQD [D37P] is lower in abundance fitness: -0.385 ± 0.15 for the first, -0.966 ± 0.15 for the second.

Going from KPGPLPPNLDDLKVSELRQQLRIRGLPVSGTKTALMSRLRPFQD [D37S] to KPGPLPPNLDDLKVSELRQQLRIRGLPVSGTKTALMMRLRPFQD [D37M], the abundance fitness rises from -0.892 ± 0.11 to -0.264 ± 0.44.

First: KPGPLPPNLDDLKVSELRQQLRIRGLPVSGTKTALMTRLRPFQD [D37T]
Second: KPGPLPPNLDDLKVSELRQQLRIRGLPVSGTKTALMVRLRPFQD [D37V]
The abundance fitness of the first is higher: -0.452 ± 0.085 for the first, -0.632 ± 0.081 for the second.

First: KPGPLPPNLDDLKVSELRQQLRIRGLPVSGTKTALMDFLRPFQD [R38F]
Second: KPGPLPPNLDDLKVSELRQQLRIRGLPVSGTKTALMDELRPFQD [R38E]
The abundance fitness of the first is lower: -0.907 ± 0.18 for the first, -0.451 ± 0.086 for the second.

KPGPLPPNLDDLKVSELRQQLRIRGLPVSGTKTALMDYLRPFQD [R38Y] and KPGPLPPNLDDLKVSELRQQLRIRGLPVSGTKTALMDKLRPFQD [R38K] are within error of each other in abundance fitness: -0.519 ± 0.12 for the first, -0.39 ± 0.094 for the second.

First: KPGPLPPNLDDLKVSELRQQLRIRGLPVSGTKTALMDMLRPFQD [R38M]
Second: KPGPLPPNLDDLKVSELRQQLRIRGLPVSGTKTALMDVLRPFQD [R38V]
The abundance fitness of the first is higher: -0.445 ± 0.11 for the first, -0.735 ± 0.082 for the second.

First: KPGPLPPNLDDLKVSELRQQLRIRGLPVSGTKTALMDSLRPFQD [R38S]
Second: KPGPLPPNLDDLKVSELRQQLRIRGLPVSGTKTALMDCLRPFQD [R38C]
The abundance fitness of the first is higher: -0.479 ± 0.082 for the first, -0.929 ± 0.18 for the second.

First: KPGPLPPNLDDLKVSELRQQLRIRGLPVSGTKTALMDGLRPFQD [R38G]
Second: KPGPLPPNLDDLKVSELRQQLRIRGLPVSGTKTALMDDLRPFQD [R38D]
The abundance fitness of the first is higher: -0.469 ± 0.071 for the first, -0.795 ± 0.19 for the second.
